The nature of the data set: yeast display, Sf9 membrane polyspecificity reagent, FACS + sequencing; frameworks hold sequencing errors. In a few lines: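 Polyreactivity labels are assigned by the sorting gate from which each nanobody was recovered. The gates were low and high (top ~1%), set on anti-HA fluorescence for expression and streptavidin fluorescence for reagent binding. Before sorting, galactose-induced (36–48 hours) yeast display cells were stained for 1 hour at 4 °C with 10% biotinylated, detergent-solubilized Sf9 membrane reagent.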
Take “QVQLVESGGGLVQAGGSLRLSCAASGRIYAYYPMGWYRQAPGKERELVAAISRGGGSTSYADSVKGRFTISRDNAKNTVYLQMNSLKPEDTAVYYCAADTRSYLVFTRYFRAYRRYDYWGQGTQVTVSS”: the “polyreactivity (PSR sort gate)” value is “low polyreactivity”.

In the case of “QVQLVESGGGLVQAGGSLRLSCAASGRIYGGNAKGWYRQAPGKEREFVAAITWRGGTTYYADSVKGRFTISRDNAKNTVYLQMNSLKPEDTAVYYCNALRYTRNTGYDYWGQGTQVTVSS”, the “polyreactivity (PSR sort gate)” value was “high polyreactivity”.

As to “QVQLVESGGGLVQAGGSLRLSCAASGRIYGYTMGWYRQAPGKERELVAAITRNGGSTYYADSVKGRFTISRDNSKNSVYLQMNSLKPEDTAVYYCAARNAFGTYYYWGQGTQVTVSS”, the “polyreactivity (PSR sort gate)” value is given as “high polyreactivity”.

Turning to “QVQLVESGGGLVQAGGSLRLSCAASGRIYKYYAMGWYRQAPGKETELVAAISISGTNTYYADSVKGRFTISRDNAKNTVYLQMNSLKPEDTAVFYCAARQYTRGYEREYWGQGTQVTVSS”, the “polyreactivity (PSR sort gate)” value is “high polyreactivity”.

Turning to “QVQLVESGGGLVQAGGSLRLSCAASGRIYVPNAMGWYRQAPGKERELVAAITSDGRTNDADSVKGRFTISRDNAKNTVYVQMNSLKPEDTAVYYSNAPVVTFGGYQDDVEYGYWGQGTQVTVSS”, the “polyreactivity (PSR sort gate)” value is listed as “low polyreactivity”.

As to “QVQLVESGGGLVQAGGSLRLSCAASGRIYYAYTMGWYIQAPGKERELVAAISGSGSTYYADSVKGRFSISRDNAKNTVYLQMNSLKPEDTAVYYCAADVTGGRKYDYWGQGTQVTVSS”, the “polyreactivity (PSR sort gate)” value is listed as “low polyreactivity”.

Turning to “QVQLVESGGGLVQAGGSLRLSCAASGRIYYRNAMGWYRQAPGKERELVAAISWRGGTTYYADSVKGRFTISRDNAKNSVYLQMNSLKPEYTAVYYCAADRRKAQAKPVHYSWGPQRYGYGYWGQGTQVTVSS”, the “polyreactivity (PSR sort gate)” value is given as “high polyreactivity”.

On to “QVQLVESGGGLVQAGGSLRLSCAASGRIYYSNDMRWYRQAPGKERELVAAISRRDGSTYYADSVKGRFTISRDNAKNTVYLQMNSLKPEDTAVYYCRYYSYRYGYWGQGTQVTVSS”, for which the “polyreactivity (PSR sort gate)” value is “high polyreactivity”.

As for “QVQLVESGGGLVQAGGSLRLSCAASGRKFNGYDMGWYRQAPGKERELVAPINNSGGTDNTYYADSVKGRFTISRDNAKNTVYLQMNSLKPEDTAVYYCNAGPVWDQWWLYYYWGQGTQVTVSS”, the “polyreactivity (PSR sort gate)” value is reported as “high polyreactivity”.

As for “QVQLVESGGGLVQAGGSLRLSCAASGRLFIIYAMGWYRQAPGKERELVAAINRGATTNYADSVKGRFTISRDNAKYTVYLQMNSLKPEDTAVYYCAARGVAKLRRVGYWGQGTQVTVSS”, the “polyreactivity (PSR sort gate)” value is “high polyreactivity”.

For “QVQLVESGGGLVQAGGSLRLSCAASGRLFTGNAMGWYRQAPGKERELVADINRTGGSPYYADSVKGRFTISRDNAKNTVYVQLNSLKPVDTAVYDCAAYVPWGWRYGYNYWGQGTQVTVSS”, the “polyreactivity (PSR sort gate)” value is on record as “high polyreactivity”.

“QVQLVESGGGLVQAGGSLRLSCAASGRLFVYNAMGWYRQAPGKEREFVATITSSGGRTYYADSVKGRFTISRDNAKNTVYLQMNSLKPEDSAVYYCAARPQNNGRNPVYRYNYWGQGTQVTVSS”: the “polyreactivity (PSR sort gate)” value was “high polyreactivity”.

On to “QVQLVESGGGLVQAGGSLRLSCAASGRLFVYNAMGWYRQAPGKERELVASISWSGDSTYADSVKGRFTISRDNAKNTVYIQMNSLKPEDTAVYYCAAYSQADYQNMDYWGQGTQVTVSS”, for which the “polyreactivity (PSR sort gate)” value is reported as “low polyreactivity”.

Regarding “QVQLVESGGGLVQAGGSLRLSCAASGRLFYQYAMGWSRQAPGKERELVAAISRSGGSTSYADSVKGRFTISRDNAKNTVYLQMNSLKPEDTAVYYCNARRWWDFQGYDYWGQGTQVTVSS”, the “polyreactivity (PSR sort gate)” value was “high polyreactivity”.

“QVQLVESGGGLVQAGGSLRLSCAASGRLMGWYRQAPGKERELVAAIRVSSGSTYYADSVKGRFTISRDNAKNTVYLQMNSLKPEDTAVYYCAKYVYLGYVRQVPYFRYDYWGQGTQVTVSS”: the “polyreactivity (PSR sort gate)” value is reported as “high polyreactivity”.

“QVQLVESGGGLVQAGGSLRLSCAASGRLSVFYTMGWYRQAPGKERELVAVSRTSGGRTNYADSVKGRFTISRDNAKNTVYIEMNCLKPEDSGDYYGNAEFTYRWGYWQVYLLDYWGQGTQVTVSS”: the “polyreactivity (PSR sort gate)” value is reported as “low polyreactivity”.

For the origin of these results see the nanobody polyreactivity screen of Harvey et al. (2022).
